For assay [1], the target named is Factor X (Homo sapiens (Human)) (UniProt P00742).
Another assay addresses T1, Mesyl-dFPR-ACC.
T1 sequence (peptide, N-terminal mesyl; D-Phe at position 1 (dF); C-terminal ACC fluorophore): FPR

In assay [2] the target is T2, soluble tissue factor (recombinant human Coagulation Factor III/soluble tissue factor; R&D Systems) (human).
T2 chain: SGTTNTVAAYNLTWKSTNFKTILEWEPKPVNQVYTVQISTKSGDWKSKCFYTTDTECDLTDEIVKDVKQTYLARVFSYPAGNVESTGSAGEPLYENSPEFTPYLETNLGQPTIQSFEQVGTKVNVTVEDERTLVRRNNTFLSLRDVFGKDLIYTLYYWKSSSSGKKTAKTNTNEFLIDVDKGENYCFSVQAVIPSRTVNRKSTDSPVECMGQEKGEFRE
The experiment in a line: SPR (Biacore T100), sTF on chip, two-state fit.

Residue numbers refer to the chain shown, from its start. Names and notes keep the numbering of the source.

For orientation: Kd means the equilibrium constant for the complex coming apart.

B1: Gla swap FIX/S222A/Q286R/M298Q-FVIIa (enzyme)
chain: YNSGKLEEFVQGNLERECMEEKCSFEEAREVFENTERTTEFWKQYSDGDQCASSPCQNGGSCKDQLQSYICFCLPAFEGRNCETHKDDQLICVNENGGCEQYCSDHTGTKRSCRCHEGYSLLADGVSCTPTVEYPCGKIPILEKRNASKPQGRIVGGKVCPKGECPWQVLLLVNGAQLCGGTLINTIWVVSAAHCFDKIKNWRNLIAVLGEHDLSEHDGDEQARRVAQVIIPSTYVPGTTNHDIALLRLHQPVVLTDHVVPLCLPERTFSERTLAFVRFSLVSGWGRLLDRGATALELQVLNVPRLMTQDCLQQSRKVGDSPNITEYMFCAGYSDGSKDSCKGDSGGPHATHYRGTWYLTGIVSWGQGCATVGHFGVYTRVSQYIEWLQKLMRSEPRPGVLLRAPFP
Regarding B1, in assay [1], the kcat/KM (M^-1s^-1), TF-dependent assay stood at 2.1e+08 M⁻¹ s⁻¹ and the kcat/KM, TF-independent assay came out at 415 M⁻¹ s⁻¹. The molecule further yielded an Activity (µmol/sec/µmol), specific activity for mesyl-dFPR-ACC (µmol/sec/µmol) with Mesyl-dFPR-ACC of 1.12.

B2: FVIIa Gla swap FIX (enzyme)
chain: B1 chain with A223S, R287Q, Q299M
Consider B2, for which, in assay [2], the Kd stood at 36 nM.

B3: Gla swap FIX/T128N/P129A/A175S/S222A/Q286R-FVIIa (enzyme)
chain: B1 chain with T129N, P130A, A176S, Q299M
Consider B3, for which, in assay [1], the kcat/KM, TF-dependent assay was 3.88e+07 M⁻¹ s⁻¹ and the kcat/KM, TF-independent assay was 30.5 M⁻¹ s⁻¹. Further, the Activity (µmol/sec/µmol), specific activity for mesyl-dFPR-ACC (µmol/sec/µmol) in the assay with Mesyl-dFPR-ACC was determined as 0.75.

B4: FVIIa V158D/Q286R/E296V/M298Q (enzyme)
chain: ANAFLEELRPGSLERECKEEQCSFEEAREIFKDAERTKLFWISYSDGDQCASSPCQNGGSCKDQLQSYICFCLPAFEGRNCETHKDDQLICVNENGGCEQYCSDHTGTKRSCRCHEGYSLLADGVSCTPTVEYPCGKIPILEKRNASKPQGRIVGGKDCPKGECPWQVLLLVNGAQLCGGTLINTIWVVSAAHCFDKIKNWRNLIAVLGEHDLSEHDGDEQSRRVAQVIIPSTYVPGTTNHDIALLRLHQPVVLTDHVVPLCLPERTFSERTLAFVRFSLVSGWGRLLDRGATALVLQVLNVPRLMTQDCLQQSRKVGDSPNITEYMFCAGYSDGSKDSCKGDSGGPHATHYRGTWYLTGIVSWGQGCATVGHFGVYTRVSQYIEWLQKLMRSEPRPGVLLRAPFP
For B4, in assay [1], the kcat/KM (M^-1s^-1), TF-dependent assay came to 1.49e+08 M⁻¹ s⁻¹ and the kcat/KM, TF-independent assay turned out to be 1020 M⁻¹ s⁻¹. The Activity (µmol/sec/µmol), specific activity for mesyl-dFPR-ACC (µmol/sec/µmol) with Mesyl-dFPR-ACC was 1.83. Also, in assay [2], the “Affinity Kd-WT/Kd-mut” value stood at 3.5 and the Kd was 2.2 nM.

B5: FVIIa T239V (enzyme)
chain: B4 chain with D158V, T239V, R286Q, V296E, Q298M
Regarding B5, in assay [2], the “Affinity Kd-WT/Kd-mut” value was 1.5 and the Kd amounted to 5.2 nM.

B6: FVIIa K109N (enzyme)
chain: B4 chain with K109N, D158V, R286Q, V296E, Q298M
With B6, in assay [2], the Kd is 10.8 nM.

B7: T239I/Q286R-FVIIa (enzyme)
chain: B4 chain with D158V, T239I, V296E, Q298M
In the case of B7, in assay [1], the kcat/KM (M^-1s^-1), TF-dependent assay was 5.79e+07 M⁻¹ s⁻¹ and the kcat/KM, TF-independent assay was found to be 4.6 M⁻¹ s⁻¹. Moreover, in the assay with Mesyl-dFPR-ACC, the Activity (µmol/sec/µmol), specific activity for mesyl-dFPR-ACC (µmol/sec/µmol) was 0.88.

B8: FVIIa S222A/H257A/Q286R (enzyme)
chain: B4 chain with D158V, S222A, H257A, V296E, Q298M
Regarding B8, in assay [2], the “Affinity Kd-WT/Kd-mut” value stood at 1.3 and the Kd was 6 nM.

B9: FVIIa T239I (enzyme)
chain: B4 chain with D158V, T239I, R286Q, V296E, Q298M
Take B9: in assay [2], the “Affinity Kd-WT/Kd-mut” value was found to be 1.2 and the Kd was determined as 6.2 nM.

B10: T239I/Q286R/M298Q-FVIIa (enzyme)
chain: B4 chain with D158V, T239I, V296E
Regarding B10, in assay [1], the kcat/KM (M^-1s^-1), TF-dependent assay is 1.13e+08 M⁻¹ s⁻¹ and the kcat/KM, TF-independent assay was found to be 11.3 M⁻¹ s⁻¹. The same molecule returned an Activity (µmol/sec/µmol), specific activity for mesyl-dFPR-ACC (µmol/sec/µmol) with Mesyl-dFPR-ACC of 1.37.

B11: V158D/E296V/M298Q/H373F-FVIIa (enzyme)
chain: B4 chain with R286Q, H373F
With B11, in assay [1], the kcat/KM, TF-dependent assay came out at 1.51e+08 M⁻¹ s⁻¹ and the kcat/KM, TF-independent assay was 1300 M⁻¹ s⁻¹. The same molecule registered an Activity (µmol/sec/µmol), specific activity for mesyl-dFPR-ACC (µmol/sec/µmol) in the assay with Mesyl-dFPR-ACC of 5.6.

B12: FVIIa H257S (enzyme)
chain: B4 chain with D158V, H257S, R286Q, V296E, Q298M
Consider B12, for which, in assay [2], the “Affinity Kd-WT/Kd-mut” value stood at 1.2 and the Kd worked out at 6.6 nM.

B13: FVIIa S222A/Q286R (enzyme)
chain: B4 chain with D158V, S222A, V296E, Q298M
With B13, in assay [2], the “Affinity Kd-WT/Kd-mut” value came out at 2.3 and the Kd turned out to be 3.4 nM.

B14: S222A/T239I-FVIIa (enzyme)
chain: B4 chain with D158V, S222A, T239I, R286Q, V296E, Q298M
Turning to B14, in assay [1], the kcat/KM (M^-1s^-1), TF-dependent assay stood at 3.05e+07 M⁻¹ s⁻¹ and the kcat/KM, TF-independent assay turned out to be 1.7 M⁻¹ s⁻¹. In addition, the Activity (µmol/sec/µmol), specific activity for mesyl-dFPR-ACC (µmol/sec/µmol) with Mesyl-dFPR-ACC amounted to 1.36.

B15: H257S/Q286R/M298Q-FVIIa (enzyme)
chain: B4 chain with D158V, H257S, V296E
B15: in assay [1], the kcat/KM (M^-1s^-1), TF-dependent assay was determined as 1.4e+08 M⁻¹ s⁻¹ and the kcat/KM, TF-independent assay worked out at 27.4 M⁻¹ s⁻¹. Also, in the assay with Mesyl-dFPR-ACC, the Activity (µmol/sec/µmol), specific activity for mesyl-dFPR-ACC (µmol/sec/µmol) stood at 1.85.

B16: FVIIa A175S (enzyme)
chain: B4 chain with D158V, A175S, R286Q, V296E, Q298M
For the molecule B16, in assay [2], the “Affinity Kd-WT/Kd-mut” value stood at 0.6 and the Kd was 12.3 nM.

B17: FVIIa T239I/Q286R (enzyme)
chain: B4 chain with D158V, T239I, V296E, Q298M
In the case of B17, in assay [2], the “Affinity Kd-WT/Kd-mut” value was 1 and the Kd was 8 nM.

B18: S222A/H257S/Q286R/M298Q-FVIIa (enzyme)
chain: B4 chain with D158V, S222A, H257S, V296E
For the molecule B18, in assay [1], the kcat/KM (M^-1s^-1), TF-dependent assay was determined as 1.58e+08 M⁻¹ s⁻¹. Besides, the Activity (µmol/sec/µmol), specific activity for mesyl-dFPR-ACC (µmol/sec/µmol) in the assay with Mesyl-dFPR-ACC stood at 1.77.

B19: T239I/Q286R/M298Q/H373F-FVIIa (enzyme)
chain: B4 chain with D158V, T239I, V296E, H373F
As to B19, in assay [1], the kcat/KM (M^-1s^-1), TF-dependent assay stood at 1.08e+08 M⁻¹ s⁻¹ and the kcat/KM, TF-independent assay is 13.1 M⁻¹ s⁻¹. Further, the Activity (µmol/sec/µmol), specific activity for mesyl-dFPR-ACC (µmol/sec/µmol) in the assay with Mesyl-dFPR-ACC was 1.59.

B20: S222A/Q286R/M298Q-FVIIa (enzyme)
chain: B4 chain with D158V, S222A, V296E
For B20, in assay [1], the kcat/KM (M^-1s^-1), TF-dependent assay was 1.29e+08 M⁻¹ s⁻¹ and the kcat/KM, TF-independent assay worked out at 253 M⁻¹ s⁻¹. The molecule also showed an Activity (µmol/sec/µmol), specific activity for mesyl-dFPR-ACC (µmol/sec/µmol) in the assay with Mesyl-dFPR-ACC of 1.9.

B21: H257A/Q286R/M298Q-FVIIa (enzyme)
chain: B4 chain with D158V, H257A, V296E
With B21, in assay [1], the kcat/KM, TF-dependent assay is 1.13e+08 M⁻¹ s⁻¹ and the kcat/KM, TF-independent assay is 61.5 M⁻¹ s⁻¹. This molecule also displayed an Activity (µmol/sec/µmol), specific activity for mesyl-dFPR-ACC (µmol/sec/µmol) with Mesyl-dFPR-ACC of 2.18.

B22: FVIIa T239V/Q286R (enzyme)
chain: B4 chain with D158V, Y234V, V296E, Q298M
For the molecule B22, the Activity (µmol/sec/µmol), specific activity for mesyl-dFPR-ACC (µmol/sec/µmol) with Mesyl-dFPR-ACC came out at 1.26. In assay [2], the “Affinity Kd-WT/Kd-mut” value worked out at 1.7 and the Kd was determined as 2.3 nM.

B23: T239I/Q286R/H373F-FVIIa (enzyme)
chain: B4 chain with D158V, T239I, V296E, Q298M, H373F
With B23, the kcat/KM (M^-1s^-1), TF-dependent assay in assay [1] amounted to 6.18e+07 M⁻¹ s⁻¹. This molecule also yielded an Activity (µmol/sec/µmol), specific activity for mesyl-dFPR-ACC (µmol/sec/µmol) in the assay with Mesyl-dFPR-ACC of 1.24.

B24: FVIIa T239I/Q286R/H373F (enzyme)
chain: B4 chain with D158V, T239I, V296E, Q298M, H373F
Regarding B24, in assay [2], the “Affinity Kd-WT/Kd-mut” value turned out to be 1 and the Kd was found to be 7.8 nM.

B25: S222A/T239I/H257A/Q286R/M298Q-FVIIa (enzyme)
chain: B4 chain with D158V, S222A, T239I, H257A, V296E
Take B25: in assay [1], the kcat/KM (M^-1s^-1), TF-dependent assay came out at 1.14e+08 M⁻¹ s⁻¹ and the kcat/KM, TF-independent assay worked out at 51.6 M⁻¹ s⁻¹. For the same molecule, in the assay with Mesyl-dFPR-ACC, the Activity (µmol/sec/µmol), specific activity for mesyl-dFPR-ACC (µmol/sec/µmol) worked out at 1.41.

B26: H257S/Q286R/M298Q/H373F-FVIIa (enzyme)
chain: B4 chain with D158V, H257S, V296E, H373F
For the molecule B26, in assay [1], the kcat/KM (M^-1s^-1), TF-dependent assay is 1.52e+08 M⁻¹ s⁻¹ and the kcat/KM, TF-independent assay amounted to 30.4 M⁻¹ s⁻¹. The molecule also displayed an Activity (µmol/sec/µmol), specific activity for mesyl-dFPR-ACC (µmol/sec/µmol) in the assay with Mesyl-dFPR-ACC of 2.32.

The values are drawn from patent US20090291890A1 (published 2009).
